Paper PMC8316672 (Journal of Molecular Biology, 2021)

Biological target: SARS-CoV-2 RBD (residues 328–528), deglycosylated, His tag removed (crystallography) (SARS-CoV-2, UniProt P0DTC2)
Experiment: crystal structure

B1: Fab 15033 (Fab, V domains shown)
VH: EVQLVESGGGLVQPGGSLRLSCAASGFDLGGYSMHWVRQAPGKGLEWVAGIYASGGATAYADSVKGRFTISADTSKNTAYLQMNSLRAEDTAVYYCARSYYYGGFGMDYWGQGTLVTVSS
VL: DIQMTQSPSSLSASVGDRVTITCRASQSVSSAVAWYQQKPGKAPKLLIYSASDLYSGVPSRFSGSRSGTDFTLTISSLQPEDFATYYCQQSYRYPITFGQGTKVEIK
- binding result: binds

B2: Fab 15033-7 (Fab, V domains shown)
VH: EVQLVESGGGLVQPGGSLRLSCAASGFDLGGYSMHWVRQAPGKGLEWVAGIYASGGATAYADSVKGRFTISADTSKNTAYLQMNSLRAEDTAVYYCARSYYYGGFGMDYWGQGTLVTVSS
VL: DIQMTQSPSSLSASVGDRVTITCRASQSVSSAVAWYQQKPGKAPKLLIYSASDLYSGVPSRFSGSRSGTDFTLTISSLQPEDFATYYCQQSHTYPITFGQGTKVEIK
- binding result: binds
